B1: minF1; a variant is named by its letters at N, in order (parent)
chain: GAGACCGCAACTGAAAAGTTGTTNNNNAANNNNNGGNTNAATTTCTGCACGTAGAAGCAAAAGGC

Variants of: B1
Assay: fraction ligated after 30 min (ligated reads / total reads); higher = more ligase activity
Settings: with F1*subA RNA substrate (template-directed ligation), 42 °C
Method in brief: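 Using barcoded primers for reverse transcription and a MiSeq for sequencing, gel-separated ligated and unligated RNAs of minimized ligase ribozyme variants were read, with core-base filtering at quality ≥30. Fraction ligated per variant was defined as ligated reads over total reads.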

Row | Variant | fraction ligated
1 | GAGACCGCAACTGAAAAGTTGTTTCAGAAAGGAGGGTTGAATTTCTGCACGTAGAAGCAAAAGGC [TCAGAGGAGTG] | 0.00402
2 | GAGACCGCAACTGAAAAGTTGTTACAGAAATGGAGGGTTGATTTCTGCACGTAGAAGCAAAAGGC [ACAGATGGAGT A40G] | 0.00662
3 | GAGACCGCAACTGAAAAGTTGTTACAAAATGGATGGGTTAATTTCTGCACGTAGAAGCAAAAGGC [ACAATGGATGT] | 0.00325
4 | GAGACCGCAACTGAAAAGTTGTACAGAAATGGATGGGTTAATTTCTGCACGTAGAAGCAAAAGGC [CAGATGGATGT T23A] | 0.00559
5 | GAGACCGCAACTGAAAAGTTGTTACAGAAATGGATGGGTTGTTTCTGCACGTAGAAGCAAAAGGC [ACAGATGGAGT G35T T38G A40T A41G] | 0.000565
6 | GAGACCGCAACTGAAAAGTTGTATCAAAATGGATGGGTTAATTTCTGCACGTAGAAGCAAAAGGC [TCAATGGATGT T23A] | 0.00522
7 | GAGACCGCAACTGAAAAGTTGTTACAAAATGGATGGGTTGATTTCTGCACGTAGAAGCAAAAGGC [ACAATGGATGT A40G] | 0.0105
8 | GAGACCGCAACTGAAAAGTTGTATCAAAATGATGGGTTGAATTTCTGCACGTAGAAGCAAAAGGC [TCAATGATGTG T23A] | 0.00128
9 | GAGACCGCAACTGAAAAGTTGTTTCAGAAATGAGGGTTGAATTTCTGCACGTAGAAGCAAAAGGC [TCAGATGAGTG] | 0.00318
10 | GAGACCGCAACTGAAAAGTTGTATAGAAATGGATGGTTGAATTTCTGCACGTAGAAGCAAAAGGC [TAGATGGATTG T23A] | 0.00337
11 | GAGACCGCAACTGAAAAGTTGTTTCAGAAATGATGGTTGAATTTCTGCACGTAGAAGCAAAAGGC [TCAGATGATTG] | 0.00341
12 | GAGACCGCAACTGAAAAGTTGTATCAGAAATGATGGGTTGATTTCTGCACGTAGAAGCAAAAGGC [TCAGATGATGT T23A A40G] | 0.0104
13 | GAGACCGCAACTGAAAAGTTGTTACAAAATGATGGGTTGAATTTCTGCACGTAGAAGCAAAAGGC [ACAATGATGTG] | 0.00381
14 | GAGACCGCAACTGAAAAGTTGTTTCAGAAAGATGGGTTGAATTTCTGCACGTAGAAGCAAAAGGC [TCAGAGATGTG] | 0.00161
15 | GAGACCGCAACTGAAAAGTTGTTTCAGAAATGGATGGTTAATTTCTGCACGTAGAAGCAAAAGGC [TCAGATGGAGT G35T] | 0.0137
16 | GAGACCGCAACTGAAAAGTTGTTTCAGAAATGATGGGTTGATTTCTGCACGTAGAAGCAAAAGGC [TCAGATGATGT A40G] | 0.011
17 | GAGACCGCAACTGAAAAGTTGTTTCAGAAAGGATGGGTTGATTTCTGCACGTAGAAGCAAAAGGC [TCAGAGGATGT A40G] | 0.00564
18 | GAGACCGCAACTGAAAAGTTGTTTCAGAAATATGGGTTGAATTTCTGCACGTAGAAGCAAAAGGC [TCAGATATGTG] | 0.000901
19 | GAGACCGCAACTGAAAAGTTGTTACAAAATGGATGGTTGAATTTCTGCACGTAGAAGCAAAAGGC [ACAATGGATTG] | 0.0118
20 | GAGACCGCAACTGAAAAGTTGTATCAGAAAGGATGGTTGAATTTCTGCACGTAGAAGCAAAAGGC [TCAGAGGATTG T23A] | 0.00302
21 | GAGACCGCAACTGAAAAGTTGTTCAGAAATGGTGGGTTGAATTTCTGCACGTAGAAGCAAAAGGC [CAGATGGTGTG] | 0.00442

Row | Variant | fraction ligated
22 | GAGACCGCAACTGAAAAGTTGTTTCAGAAATGATGGGTTAATTTCTGCACGTAGAAGCAAAAGGC [TCAGATGATGT] | 0.00279
23 | GAGACCGCAACTGAAAAGTTGTTACAGAAAGGATGGGTTAATTTCTGCACGTAGAAGCAAAAGGC [ACAGAGGATGT] | 0.00215
24 | GAGACCGCAACTGAAAAGTTGTATCAGAAATGAGGGTTGAATTTCTGCACGTAGAAGCAAAAGGC [TCAGATGAGTG T23A] | 0.00316
25 | GAGACCGCAACTGAAAAGTTGTTACAAATGGATGGGTTGAATTTCTGCACGTAGAAGCAAAAGGC [ACAAGGATGTG A29T] | 0.00252
26 | GAGACCGCAACTGAAAAGTTGTTTCAAATGGATGGGTTGAATTTCTGCACGTAGAAGCAAAAGGC [TCAAGGATGTG A29T] | 0.00599
27 | GAGACCGCAACTGAAAAGTTGTTACAGAAATGATGGGTTGATTTCTGCACGTAGAAGCAAAAGGC [ACAGATGATGT A40G] | 0.00654
28 | GAGACCGCAACTGAAAAGTTGTTACAAAATGGAGGGTTGAATTTCTGCACGTAGAAGCAAAAGGC [ACAATGGAGTG] | 0.00318
29 | GAGACCGCAACTGAAAAGTTGTTACAAAATGGTGGGTTGAATTTCTGCACGTAGAAGCAAAAGGC [ACAATGGTGTG] | 0.00249
30 | GAGACCGCAACTGAAAAGTTGTATCAGAAATATGGGTTGAATTTCTGCACGTAGAAGCAAAAGGC [TCAGATATGTG T23A] | 0.000828
31 | GAGACCGCAACTGAAAAGTTGTACAGAAATGGTGGGTTGAATTTCTGCACGTAGAAGCAAAAGGC [CAGATGGTGTG T23A] | 0.0045
32 | GAGACCGCAACTGAAAAGTTGTATAGAAATGGTGGGTTGAATTTCTGCACGTAGAAGCAAAAGGC [TAGATGGTGTG T23A] | 0.00156
33 | GAGACCGCAACTGAAAAGTTGTATCAAATGGATGGGTTGAATTTCTGCACGTAGAAGCAAAAGGC [TCAAGGATGTG T23A A29T] | 0.00621
34 | GAGACCGCAACTGAAAAGTTGTTACAGAAAGGTGGGTTGAATTTCTGCACGTAGAAGCAAAAGGC [ACAGAGGTGTG] | 0.00336
35 | GAGACCGCAACTGAAAAGTTGTATCAGAAATGATGGTTGAATTTCTGCACGTAGAAGCAAAAGGC [TCAGATGATTG T23A] | 0.00216
36 | GAGACCGCAACTGAAAAGTTGTTACAGAAATGGATGGTTGATTTCTGCACGTAGAAGCAAAAGGC [ACAGATGGAGT G35T A40G] | 0.0182
37 | GAGACCGCAACTGAAAAGTTGTATCAGAAAGGATGGGTTGATTTCTGCACGTAGAAGCAAAAGGC [TCAGAGGATGT T23A A40G] | 0.00415
38 | GAGACCGCAACTGAAAAGTTGTTCAGAAATGGATGGTTGAATTTCTGCACGTAGAAGCAAAAGGC [CAGATGGATTG] | 0.00607
39 | GAGACCGCAACTGAAAAGTTGTTACAGAAATGATGGTTGAATTTCTGCACGTAGAAGCAAAAGGC [ACAGATGATTG] | 0.00209
40 | GAGACCGCAACTGAAAAGTTGTTAAGAAATGGTGGGTTGAATTTCTGCACGTAGAAGCAAAAGGC [AAGATGGTGTG] | 0.00306
41 | GAGACCGCAACTGAAAAGTTGTTACAGAAATGAGGGTTGAATTTCTGCACGTAGAAGCAAAAGGC [ACAGATGAGTG] | 0.00298

Reference: the supplement of paper PMC6755084
